Measurements as given in patent publication EP0983376B1, “SCREENING ASSAYS FOR AGENTS THAT ALTER INHIBITOR OF APOPTOSIS (IAP) PROTEIN REGULATION OF CASPASE ACTIVITY” (The Burnham Institute, priority 1997, dated 1998).

B1: GST-c-IAP-1(BIR) (other, human, UniProt Q13490 1-350, looked up)
chain: MHKTASQRLFPGPSYQNIKSIMEDSTILSDWTNSNKQKMKYDFSCELYRMSTYSTFPAGVPVSERSLARAGFYYTGVNDKVKCFCCGLMLDNWKLGDSPIQKHKQLYPSCSFIQNLVSASLGSTSKNTSPMRNSFAHSLSPTLEHSSLFSGSYSSLSPNPLNSRAVEDISSSRTNPYSYAMSTEEARFLTYHMWPLTFLSPSELARAGFYYIGPGDRVACFACGGKLSNWEPKDDAMSEHRRHFPNCPFLENSLETLRFSISNLSMQTHAARMRTFMYWPSSVPVQPEQLASAGFYYVGRNDDVKCFCCDGGLRCWESGDDPWVEHAKWFPRCEFLIRMKGQEFVDEIQG
notes: range 1-350; not shown: glutathione S-transferase encoded by vector pGEX4T; vector linker not described
B5: purified recombinant active caspase-3 (His6-tagged) (enzyme)
chain 1: SGISLDNSYKMDYPEMGLCIIINNKNFHKSTGMTSRSGTDVDAANLRETFRNLKYEVRNKNDLTREEIVELMRDVSKEDHSKRSSFVCVLLSHGEEGIIFGTNGPVDLKKITNFFRGDRCRSLTGKPKLFIIQACRGTELDCGIETD
chain 2: SGVDDDMACHKIPVEADFLYAYSTAPGYYSWRNSKDGSWFIQSLCAMLKQYADKLEFMHILTRVNRKVATEFESFSFDATFHAKKQIPCIVSMLTKELYFYH
notes: domain: large subunit;domain: small subunit; also called His6-caspase-3; CPP32

Key:
[1] = molecular target: purified recombinant active caspase-7 (His6-tagged) (UniProt P55210); experiment: progress curves of DEVD-AFC hydrolysis by caspase-7 (150 pM) with 0.025 to 1.5 µM IAP
pro-caspase-9 processing = experiment: Cytochrome c-induced processing of pro-caspase-9 in 293 cell cytosolic extracts; format: biochemical; conditions: 10 µM cytochrome c, 1 mM dATP, 30 °C, 30 minutes
Method: For the results shown in Figure 4, in vitro translated ^35S-labeled pro-caspase-9 was added to cytosolic extracts from 293 cells, and subsequently incubated for 30 min at 30 °C with (lanes 2-6) or without (lane 1) 10 µM cytochrome c and 1 mM dATP in the presence or absence of 0.2 µM GST-IAP proteins or a GST control protein. Cytochrome c induced processing of pro-caspase-9 was subsequently monitored by SDS-PAGE and autoradiography.
Pro-caspase-9 inhibition by Ac-DEVD-fmk, zVAD-fmk and XIAP was compared as follows. In vitro translated ^35S-labeled pro-caspase-9 was added to cytosolic extracts from 293 cells containing 10 µM cytochrome c and 1 mM dATP. Samples were incubated at 30 °C for 30 minutes in the presence of the indicated concentrations of inhibitors. Proteins were separated on SDS-PAGE gels, dried directly, and exposed to film.

293T cells = experiment: Bax-induced apoptosis and caspase-3 processing in transfected 293T cells; format: cell-based, Human; conditions: PI staining, 24 hr; Bax expressing cells treated with 50 µM inhibitor (Bax alone about 25%)
Method: N-benzyloxycarbonyl-Val-Ala-Asp fluoromethylketone (zVAD-fmk; 50 µM) (Bachem California; Torrance CA) was added immediately after transfection of the Bax plasmid. Transfection efficiency was uniformly 80-90%, as determined by X-Gal staining following cotransfection with pCMV-βGal.
Cells were maintained in culture for 24 hr, then floating and attached cells were harvested and an aliquot was removed and the percent of dead cells was determined by either trypan blue or propidium iodide (PI) dye exclusion assay. A second aliquot was used to assess the percentage of apoptotic cells with subdiploid DNA content by FACS analysis of PI stained, ethanol fixed cells. The remaining cell pellets were lysed in 10 mM HEPES (pH 7.5), 142 mM KCl, 1 mM EGTA, 1 mM DTT, 0.2% NP-40, 0.1 mM PMSF and used for immunoblot analysis or for protease assays.

[2] = molecular target: B5; experiment: progress curves of DEVD-AFC hydrolysis by caspase-3 (7 pM) with 0.025 to 1.5 µM IAP
GST-c-IAP-1 [3] = molecular target: T1, GST-c-IAP-1 (human, UniProt Q13490 1-618); experiment: opening sentence of Example VI
T1 construct: domain: full length; also called HIAP-2; hMIHB; not shown: glutathione S-transferase encoded by vector pGEX4T; vector linker not described

GST-c-IAP-2 [4] = molecular target: T2, GST-c-IAP-2 (human, UniProt Q13489 1-604); experiment: opening sentence of Example VI
T2 construct: domain: full length; also called HIAP-1; hMIHC; not shown: glutathione S-transferase encoded by vector pGEX4T; vector linker not described

myc-tagged c-IAP-2 = molecular target: T3, myc-tagged c-IAP-2 (human, UniProt Q13489 1-604); experiment: legend of Figure 8: anti-myc immunoprecipitation, anti-FLAG immunoblot
T3 construct: also called pcDNA3myc-c-IAP-2; pcDNA3-myc-c-IAP-2; not shown: Myc tag of pcDNA3myc

myc-tagged c-IAP-1 = molecular target: T4, myc-tagged c-IAP-1 (human, UniProt Q13490 1-618); experiment: as above
T4 construct: also called pcDNA3myc-c-IAP-1; pcDNA3-myc-IAP-1; not shown: Myc tag of pcDNA3myc

[5] = molecular target: B5; experiment: GST pull-down on glutathione-SEPHAROSE, immunoblot
GST-c-IAP-1 [6] = molecular target: T1, GST-c-IAP-1; experiment: opening sentence of Example IV
GST-c-IAP-2 [7] = molecular target: T2, GST-c-IAP-2; experiment: opening sentence of Example IV
GST-c-IAP-1(BIR) = molecular target: B1; experiment: glutathione-SEPHAROSE affinity chromatography
GST-c-IAP-1 [8] = molecular target: T1, GST-c-IAP-1; experiment: GST-IAP added to 293 extracts previously treated with cytochrome c, recovered on glutathione-Sepharose, anti-caspase-3 immunoblot
GST-c-IAP-2 [9] = molecular target: T2, GST-c-IAP-2; experiment: as above

GST-c-IAP-2 (from UniProt Q13489 1-604) showed a Ki [1] of 26 nM.

With “N-benzyloxycarbonyl-Val-Ala-Asp fluoromethylketone [zVAD-fmk]” the “concentration to completely abolish processing of pro-caspase-9” value (pro-caspase-9 processing) was “at least 5 µM” and the apoptotic cells (293T cells) was “about 5%”.

With B1 the Ki [2] was 330 nM and the Ki [1] was 160 nM.

B2: in vitro translated 35S-labeled pro-caspase-9 (enzyme, UniProt P55211 1-416, looked up)
chain: MDEADRRLLRRCRLRLVEELQVDQLWDALLSRELFRPHMIEDIQRAGSGSRRDQARQLIIDLETRGSQALPLFISCLEDTGQDMLASFLRTNRQAAKLSKPTLENLTPVVLRPEIRKPEVLRPETPRPVDIGSGGFGDVGALESLRGNADLAYILSMEPCGHCLIINNVNFCRESGLRTRTGSNIDCEKLRRRFSSLHFMVEVKGDLTAKKMVLALLELAQQDHGALDCCVVVILSHGCQASHLQFPGAVYGTDGCPVSVEKIVNIFNGTSCPSLGGKPKLFFIQACGGEQKDHGFEVASTSPEDESPGSNPEPDATPFQEGLRTFDQLDAISSLPTPSDIFVSYSTFPGFVSWRDPKSGSWYVETLDDIFEQWAHSEDLQSLLLRVANAVSVKGIYKQMPGCFNFLRKKLFFKTS
modifications: 35S-L-methionine labeled
notes: domain: zymogen; also called zymogen of caspase-9; Mch6
B2: binds (GST-c-IAP-1 [3]); binds (GST-c-IAP-2 [4]).

B3: FLAG tagged pro-caspase-9 (enzyme, UniProt P55211 1-416, looked up, not shown: small tags and cut ends)
chain: MDEADRRLLRRCRLRLVEELQVDQLWDALLSRELFRPHMIEDIQRAGSGSRRDQARQLIIDLETRGSQALPLFISCLEDTGQDMLASFLRTNRQAAKLSKPTLENLTPVVLRPEIRKPEVLRPETPRPVDIGSGGFGDVGALESLRGNADLAYILSMEPCGHCLIINNVNFCRESGLRTRTGSNIDCEKLRRRFSSLHFMVEVKGDLTAKKMVLALLELAQQDHGALDCCVVVILSHGCQASHLQFPGAVYGTDGCPVSVEKIVNIFNGTSCPSLGGKPKLFFIQACGGEQKDHGFEVASTSPEDESPGSNPEPDATPFQEGLRTFDQLDAISSLPTPSDIFVSYSTFPGFVSWRDPKSGSWYVETLDDIFEQWAHSEDLQSLLLRVANAVSVKGIYKQMPGCFNFLRKKLFFKTS
notes: domain: zymogen; also called Flag-pro-caspase-9; FLAG-caspase-9
B3: binds (myc-tagged c-IAP-2); binds (myc-tagged c-IAP-1).

B4: GST-CD40 cytosolic domain (other, UniProt P25942 216-277, looked up)
chain: KKVAKKPTNKAPHPKQEPQEINFPDDLPGSNTAAPVQETLHGCQPVTQEDGKESRISVQERQ
notes: domain: cytosolic domain; Control protein; not shown: glutathione S-transferase
B4: no binding [5].

B5: binds (GST-c-IAP-1 [6]); binds (GST-c-IAP-2 [7]); binds (GST-c-IAP-1(BIR)).

B6: processed (active) caspase-3 of 293 cell cytosolic extracts treated with cytochrome c and dATP (enzyme, human)
chain 1: SGISLDNSYKMDYPEMGLCIIINNKNFHKSTGMTSRSGTDVDAANLRETFRNLKYEVRNKNDLTREEIVELMRDVSKEDHSKRSSFVCVLLSHGEEGIIFGTNGPVDLKKITNFFRGDRCRSLTGKPKLFIIQACRGTELDCGIETD
chain 2: SGVDDDMACHKIPVEADFLYAYSTAPGYYSWRNSKDGSWFIQSLCAMLKQYADKLEFMHILTRVNRKVATEFESFSFDATFHAKKQIPCIVSMLTKELYFYH
notes: domain: large subunit;domain: small subunit; Endogenous protein of the extract, detected with anti-caspase-3 antiserum that sees only the zymogen and the large subunit; also called processed caspase-3; band 3
B6: binds (GST-c-IAP-1 [8]); binds (GST-c-IAP-2 [9]).

B7: GST-c-IAP-2(BIR) (other, human, UniProt Q13489 1-335, looked up)
chain: MNIVENSIFLSNLMKSANTFELKYDLSCELYRMSTYSTFPAGVPVSERSLARAGFYYTGVNDKVKCFCCGLMLDNWKRGDSPTEKHKKLYPSCRFVQSLNSVNNLEATSQPTFPSSVTNSTHSLLPGTENSGYFRGSYSNSPSNPVNSRANQDFSALMRSSYHCAMNNENARLLTFQTWPLTFLSPTDLAKAGFYYIGPGDRVACFACGGKLSNWEPKDNAMSEHLRHFPKCPFIENQLQDTSRYTVSNLSMQTHAARFKTFFNWPSSVLVNPEQLASAGFYYVGNSDDVKCFCCDGGLRCWESGDDPWVQHAKWFPRCEYLIRIKGQEFIRQVQ
notes: range 1-335; not shown: glutathione S-transferase encoded by vector pGEX4T; vector linker not described
Molecule B7 has a Ki [2] of 260 nM and a Ki [1] of 238 nM.
